# Data reported in patent US20210188980A1 (SHANGHAI EPIMAB BIOTHERAPEUTICS, published 2021).
# Assays:
# [1] = target: T1, human PD-1 expressed on cells (human, UniProt Q15116 25-288); assay: FACS, CHO-K1/huPD-1 cells
# T1 construct: whole, on cells; also called CHO-K1/huPD-1; CHO-K1-hPD-1 cells
# Method: (§1) CHO-K1/huPD-1 or CHO-K1/cynoPD-1 cells, described above, were charged at 2×10⁴ cell per well into 96-well assay round-bottomed assay plates (Cat. No. 3799; Corning) and stained with purified anti-PD-1 antibodies. PD-1 antibodies were detected with AlexaFluor® Donkey anti-Mouse IgG (H+L) Highly Cross-Adsorbed Secondary Antibody, (Cat. No. A21202; Invitrogen), and cell fluorescence was monitored using a flow cytometer. The data were processed by GraphPad software, and EC50 values were calculated.
# [2] = target: T2, cynomolgus PD-1 expressed on CHO-K1 cells (cynomolgus monkey, UniProt B0LAJ3 25-288); assay: FACS, CHO-K1/cynoPD-1 cells
# T2 construct: also called CHO-K1/cynoPD-1; CHO-K1-cynoPD-1
# Method: as §1
# [3] = target: T3, human PD-1 ECD/Fc fusion protein (human); assay: SPR Biacore, mAb captured, huPD-1/Fc analyte
# T3 construct: also called huPD-1/Fc; HuPD-1 ECD/Fc
# Method: The binding kinetics of purified antibodies were measured by surface plasmon resonance using a Biacore […] instrument (GE Healthcare) using standard procedures. Briefly, goat anti-mouse IgG Fc polyclonal antibody (Genway) was directly immobilized across a biosensor chip, and antibodies samples were injected over reaction matrices at a flow rate of 5 μl/min. The association and dissociation rate constants, kₒₙ(M⁻¹ s⁻¹) and koff (s⁻¹) respectively, were determined with a continuous flow rate of 30 μl/min. Rate constants were derived by making kinetic binding measurements at five different concentrations of human PD-1/Fc protein. The equilibrium dissociation constant KD (M) of the reaction between antibodies and related target proteins was then calculated from the kinetic rate constants using the formula KD=koff/kₒₙ.
# [4] = target: T3, human PD-1 ECD/Fc fusion protein; assay: RBA ELISA on huPD-1/Fc; competitor biotin-huPD-L1/Fc
# Method: (§2) Supernatants displaying PD-1 specific activity were tested for the ability to block PD-1 binding to its ligands PD-L1 and PD-L2 using immobilized human PD-1 ECD/Fc as a target and PD-L1/Fc and PD-L2/Fc fusion proteins, prepared in the same manner as the PD-1 ECD/Fc binding proteins described in Example 1.3 above. To determine the relative potency of the antibody-containing supernatants, their ability to inhibit the binding of a human PD-1 ligand (PD-L1 or PD-L2) to human PD-1 protein was evaluated. ELISA plates were coated with 100 μl of 50 ng/m of huPD-1/Fc (i.e., the extracellular domain of PD-1 grafted onto the N-terminus of a human Fc region, recovered as a homodimer) in PBS and incubated overnight at 4° C. Plates were washed four times in washing buffer (PBS containing 0.05% Tween 20) and blocked for 1 hour at 37° C. with 200 μl per well of blocking buffer (1% BSA in PBS containing 0.05% Tween 20). After blocking buffer was removed, hybridoma supernatant (50 μl) was added to the wells, mixed with either 50 μl biotinylated human PD-L1/Fc ([…] final concentration) in blocking buffer or 50 μl biotinylated human PD-L2/Fc (final concentration 50 μg/ml) in blocking buffer, then incubated at 37° C. for 1 hour. Signal was developed by adding streptavidin-HRP (Sigma, Cat. No. S2468) (100 μl/well of streptavidin-HRP at 1:5000 dilution) and incubating for 40 minutes at 37° C. and washed four times in washing buffer. 100 μl of TMB solution were added per well. Following color development, the reaction was stopped with 1 Normal HCl and absorbance at 450 nm was measured. […]
# [5] = target: T3, human PD-1 ECD/Fc fusion protein; assay: RBA ELISA on huPD-1/Fc; competitor biotin-huPD-L2/Fc
# Method: as §2
# [6] = target: T3, human PD-1 ECD/Fc fusion protein; assay: ELISA, coated huPD-1/Fc
# Method: ELISA plates were incubated overnight at 4° C. with 50 μl of the synthetic human PD-1 ECD/Fc fusion protein targets described above diluted in PBS buffer, pH 7.4, at 1 μg/ml. Plates were washed four times in washing buffer (PBS containing 0.05% Tween 20), and blocked for 1 hour at 37° C. with 200 μl per well blocking buffer (1% BSA in PBS containing 0.05% Tween 20). After blocking buffer was removed, hybridoma supernatant (or later diluted purified mAbs) were added to the wells at 100 μl per well and incubated at 37° C. for 1 hour. The wells were washed four times with washing buffer, and anti-mouse HRP (Sigma) for mouse anti-human PD-1 antibody characterization were diluted 1:5000 and added to the wells at 100 μl per well. The plates were incubated for 1 hour at 37° C. and washed four times in washing buffer. 100 μl of tetramethylbenzidine (TMB) chromogenic solution were added per well. Following color development, the reaction was stopped with 1 Normal HCl and absorbance at 450 nm was measured on a SpectraMax M5e plate reader (Molecular Devices; San Jose, Calif., US).
# A binding ELISA was performed in the same way as described in Example 1.3 above. Each purified antibody was 10-fold serially diluted and duplicated. After blocking of the 96-well assay plate with wells containing immobilized PD-1 ECD/Fc fusion protein targets, the purified antibody samples with diluted concentrations were added to wells of assay plates. The HRP-linked anti-mouse IgG antibody (A0168, Sigma) and TMB reagent were used to detect and develop the ELISA signal, which were read on a SpectraMax® M5e plate reader at wavelength of 450 nm. Curves were fitted using GraphPad software, and EC50 were calculated. Similarly, a receptor blocking assay (RBA) was also performed as described in Example 1.5 with titrated, purified antibodies, and top blocking percentages and IC50 values were determined.
Binder,EC50 [1] [nM],EC50 [2] [nM],Kd [3] [nM],koff [3] [s⁻¹],kon [3] [M⁻¹ s⁻¹],IC50 [4] [nM],TOP inhibition (%) [4] [%],IC50 [5] [nM],TOP inhibition (%) [5] [%],EC50 [6] [nM]
"mAb718 (antibody, V domains shown, murine hybridoma anti-PD-1 mAb) VH: QVQLQQSGAELVRPGASVTLSCKASGYTFTDYEMHWAKQTPVHGLEWIGVIEPESGGTVYNQKFKGKAKLTADKSSRTAYMELRSLTSEDSAVYYCTREGFNSDHYFDYWGQGTTLTVSS VL: DVLMTQTPLSLPVSLGDQASISCRSSQNIVHSNGNTYLEWYLQKPGQSPKLLIYKVFNRFSGVPDRFSGSGSGTDFTLKISRVEAEDLGVYYCFQGSHVPYTFGGGTKLEIK",3.2,4.2,4.84,0.000283,58400,4.19,96.6,1.91,96.6,0.02
"mAb714 (antibody, V domains shown, murine hybridoma anti-PD-1 mAb) VH: EVHLQQSGPELVKPGASVKIFCKASGYTFTDNNVEWVKQSHGKSLEWIGDINPNNGDTLYSQYFKDKATLTVDKSSTTAYMELRSLTSEDTGLYYCARGKSDQFDYWGQGTTLTVSS VL: DIQMTQSPASQSASLGESVTITCLASQTIGTWLAWYQQKPGKSPQLLIYAATSLADGVPSRFSGSGSGTKFSFKISSLQGEDFVSYYCQQLYSSPWTFGGGTKLEIK",1.6,0.8,2.11,0.00021,99400,2.95,92.3,2.24,93.1,0.05
"mAb701 (antibody, V domains shown, murine hybridoma anti-PD-1 mAb) VH: EVLLVESGGGLVKPGGSLKLSCAASGFTFSSYMMSWIRQTPERRLEWVASMSGGGRDTYYPDSVKGRFTISRDNAKNTLYLQMSSLRSEDTALYYCARRGTYAMDYWGQGTSVTVSS VL: DIQMTQSPASQSASLGESVTITCLASQTIGTWLTWYQQKPGKSPQLLIYAATSLADGVPSRFSGSGSGTKFSFKISSLQAEDFVSYYCQQLYSTPWTFGGGTKLEIK",3,3.8,6.81,0.000512,75200,5.32,87.1,2.67,94.1,0.1
"mAb719 (antibody, V domains shown, murine hybridoma anti-PD-1 mAb) VH: EVKLVESGGGLVKPGGSLKLSCTASGFSFSSHLMSWVRQTPEKRLEWVAAISGGGADTYYPDSVKGRFTISRDNAKNTLYLQMRSLRSEDTALYYCTRQILAFDSWGQGTTLTVSS VL: DIQMNQSPSSLSVSLGDTITITCHASQNIYVWLNWYQQKPGNIPKLLIYKASNLHTGVPSRFSGGGSGTGFTLTISSLQPEDIATYYCQQGQSYPWTFGGGTKLEIK",1.7,2.1,3,0.000215,71500,3.39,96.5,1.85,95.2,0.02
"mAb713 (antibody, V domains shown, murine hybridoma anti-PD-1 mAb) VH: EVKLVESGGGLVKPGGSLELSCAASGFTSSDYGMHWVRQAPEKGLEWVAYISSGSYTIYYADTVKGRFTISRDNAKNTLFLQMTSLRSEDTAMYYCAKRGGSSHVNVMDYWGQGTSVTVSS VL: DIQMTQSSSYLSVSLGGRVTITCKASDHINNWLAWYQQKPGNAPRLLISGATSLETGVPSRFSGSGSGKDYTLSITSLQTEDVATYYCQQYWSPPYTFGGGTKLEIK",1.1,0.9,1.96,0.000285,145000,2.95,94.4,2.52,93.5,0.08

# Second part, the binder after the results:
EC50 [1] [nM],EC50 [2] [nM],Kd [3] [nM],koff [3] [s⁻¹],kon [3] [M⁻¹ s⁻¹],IC50 [4] [nM],TOP inhibition (%) [4] [%],IC50 [5] [nM],TOP inhibition (%) [5] [%],EC50 [6] [nM],Binder
0.5,0.7,2.45,0.00085,347000,3,96,2.02,95.7,0.05,"mAb703 (antibody, V domains shown, murine hybridoma anti-PD-1 mAb) VH: DVQLQESGPGLVKPSQSLSLTCSVTGYSITTGYYWNWIRQFPGNKLEWMGYMSYDGNNNYNPSLKNRISITRDTSKNQFLLRLNSVTTEDTATYFCARDRGTTILGGTMDYWGQGTSVTVS VL: SIVMTQTPKFLFVSAGDRVTIACKASQSVSNDVAWYQQKPGQSPKLLIYYAFYRYTGVPDRFTGSGYGTDFTFTISTVQAEDLAVYFCQQDYSSPWTFGGGTKLEIK"
1.1,0.9,1.5,0.000237,158000,2.91,86.9,2.17,88,0.04,"mAb715 (antibody, V domains shown, murine hybridoma anti-PD-1 mAb) VH: EVMLVESGGGLLKPGGSLKLSCAASGFTFSSYAMSWVRQTPEKRLEWVATISGGGRDTYYPDSVKGRFTISRDNAKNTLYLQMTSLRSEDTAFYYCAGQGGTYLFASWGQGTLVTVSA VL: DIVMTQSHKFMSTSVGDSVTITCKASQDVNTAVAWYQQKPGQPPKVLIYWASTRHTGVPDRFTGSGSGTDYTLTISSVQAEDLALYYCQQHYTTPYTFGGGTKLEIK"
0.2,0.2,0.939,0.000104,111000,0.8,91.6,0.52,93.7,0.01,"mAb709 (antibody, V domains shown, murine hybridoma anti-PD-1 mAb) VH: EVKLVESGGGLVKPGGSLKLSCAASGFTFSFYTMSWVRQTPEKRLEWVATISGGGRDTYYPDSVKGRFTISRDNAKNTLYLHMSSLRSEDTALYYCAGQGGNYLFAYWGQGTLVTVSA VL: DIVMTQSHKFMSTSVGDSVTITCKASQDVNTVVAWYQQKPGQSLKVLISWASTRHTGVPARFTGSGSGTDYTLTISSVQAEDLALYYCQQHYTTPYTFGGGTQLEIK"
